Experimental findings from publication PMC10397247 are described below.

In assay [1] the target is T1, P3A-bS.
T1 chain: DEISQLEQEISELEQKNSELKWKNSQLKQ
Nature of the assay: two-hybrid library CCNG1.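 Note: natural log of median RNA to DNA barcode read ratio; higher means stronger binding.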

In assay [2] the target is T2, P2A-bS.
T2 chain: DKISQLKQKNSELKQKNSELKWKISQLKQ
Briefly: two-hybrid library CCNG1.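 Note: natural log of median RNA to DNA barcode read ratio; higher means stronger binding.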

The target of assay [3] is T3, P4A-bS.
T3 chain: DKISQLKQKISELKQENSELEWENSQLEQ
Nature of the assay: two-hybrid library CCNG1.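 Note: natural log of median RNA to DNA barcode read ratio; higher means stronger binding.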

For assay [4], the target named is T4, P9A-bS.
T4 chain: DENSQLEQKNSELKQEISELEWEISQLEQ
Briefly: two-hybrid library CCNG1.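 Note: natural log of median RNA to DNA barcode read ratio; higher means stronger binding.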

Assay [5] addresses T5, P6A-bS.
T5 chain: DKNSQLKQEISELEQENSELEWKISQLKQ
Nature of the assay: two-hybrid library CCNG1.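 Note: natural log of median RNA to DNA barcode read ratio; higher means stronger binding.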

For assay [6], the target named is T6, P8A-bS.
T6 chain: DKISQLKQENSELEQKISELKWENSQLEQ
Nature of the assay: two-hybrid library CCNG1.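 Note: natural log of median RNA to DNA barcode read ratio; higher means stronger binding.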

Assay [7] addresses T7, P5A-bS.
T7 chain: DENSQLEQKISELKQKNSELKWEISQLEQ
Nature of the assay: two-hybrid library CCNG1.

Assay [8] concerns the target T8, P7A-bS.
T8 chain: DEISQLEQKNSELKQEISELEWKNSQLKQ
Nature of the assay: two-hybrid library CCNG1.

Assay [9] has as its target T9, P1A-bS.
T9 chain: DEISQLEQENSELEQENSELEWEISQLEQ
Briefly: two-hybrid library CCNG1.

For assay [10], the target named is T10, APC232-AA.
T10 chain: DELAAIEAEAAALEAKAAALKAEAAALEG
Briefly: two-hybrid library CCmax. As to conditions: mean of both orientations.

Assay [11] has as its target T11, APC1434-AA.
T11 chain: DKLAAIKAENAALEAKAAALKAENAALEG
Nature of the assay: two-hybrid library CCmax. The following applies: mean of both orientations.

The target of assay [12] is T12, APC3645-AA.
T12 chain: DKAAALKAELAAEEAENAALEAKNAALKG
Nature of the assay: two-hybrid library CCmax. As to conditions: mean of both orientations.

Assay [13] addresses T13, 4H733-AA.
T13 chain: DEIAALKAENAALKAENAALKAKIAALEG
Nature of the assay: two-hybrid library CCmax. As to conditions: mean of both orientations.

Assay [14] has as its target T14, 4H2447-AA.
T14 chain: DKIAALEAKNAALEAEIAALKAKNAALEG
Briefly: two-hybrid library CCmax.

Assay [15] concerns the target T15, APC6108-AA.
T15 chain: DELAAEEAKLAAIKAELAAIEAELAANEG
Briefly: two-hybrid library CCmax. The following applies: mean of both orientations.

The target of assay [16] is T16, APC4436-AA.
T16 chain: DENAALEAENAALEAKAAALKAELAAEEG
Briefly: two-hybrid library CCmax. As to conditions: mean of both orientations.

The target of assay [17] is T17, APC4011-AA.
T17 chain: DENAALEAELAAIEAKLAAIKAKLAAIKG
Nature of the assay: two-hybrid library CCmax. The following applies: mean of both orientations.

Assay [18] addresses T18, APC1015-AA.
T18 chain: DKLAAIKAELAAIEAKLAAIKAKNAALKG
Briefly: two-hybrid library CCmax. As to conditions: mean of both orientations.

Assay [19] deals with T19, 4H2458-AA.
T19 chain: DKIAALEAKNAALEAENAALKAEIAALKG
Nature of the assay: two-hybrid library CCmax. As to conditions: mean of both orientations.

Assay [20] concerns the target T20, APC8191-AA.
T20 chain: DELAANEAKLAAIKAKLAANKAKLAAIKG
Nature of the assay: two-hybrid library CCmax. As to conditions: mean of both orientations.

In assay [21] the target is T21, APC9319-AA.
T21 chain: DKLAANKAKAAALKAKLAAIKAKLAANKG
Briefly: two-hybrid library CCmax. The following applies: mean of both orientations.

The target in assay [22] is T22, APC7099-AA.
T22 chain: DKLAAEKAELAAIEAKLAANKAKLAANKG
Briefly: two-hybrid library CCmax. The following applies: mean of both orientations.

Assay [23] concerns the target T23, APC2237-AA.
T23 chain: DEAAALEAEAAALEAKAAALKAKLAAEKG
Nature of the assay: two-hybrid library CCmax. As to conditions: mean of both orientations.

In assay [24] the target is T24, APC9096-AA.
T24 chain: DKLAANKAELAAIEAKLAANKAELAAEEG
Briefly: two-hybrid library CCmax. As to conditions: mean of both orientations.

Assay [25] addresses T25, 4H807-AA.
T25 chain: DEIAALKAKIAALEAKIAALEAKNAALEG
Briefly: two-hybrid library CCmax. As to conditions: mean of both orientations.

Assay [26] addresses T26, APC4264-AA.
T26 chain: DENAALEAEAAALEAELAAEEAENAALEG
Briefly: two-hybrid library CCmax. The following applies: mean of both orientations.

Assay [27] concerns the target T27, APC8910-AA.
T27 chain: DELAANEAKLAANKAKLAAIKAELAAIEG
Nature of the assay: two-hybrid library CCmax. As to conditions: mean of both orientations.

The target in assay [28] is T28, APC2405-AA.
T28 chain: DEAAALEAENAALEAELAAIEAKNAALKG
Nature of the assay: two-hybrid library CCmax. As to conditions: mean of both orientations.

In assay [29] the target is T29, 4H716-AA.
T29 chain: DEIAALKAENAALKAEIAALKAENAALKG
Briefly: two-hybrid library CCmax. As to conditions: mean of both orientations.

Assay [30] concerns the target T30, 4H3330-AA.
T30 chain: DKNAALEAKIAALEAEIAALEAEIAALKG
Nature of the assay: two-hybrid library CCmax. As to conditions: mean of both orientations.

The target of assay [31] is T31, APC5383-AA.
T31 chain: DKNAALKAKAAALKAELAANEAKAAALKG
Nature of the assay: two-hybrid library CCmax. The following applies: mean of both orientations.

In the case of DEISQLEQENSELEQENSELEWEISQLEQ [P1A-bS], the interaction score in assay [1] was -0.598; in assay [2] it was 1.9; in [3], -0.182; in assay [4], -1.08; in assay [5], 0.0466; in assay [6], -0.899. Besides, the interaction score was -0.939 in assay [7], -1.96 in [8] and -0.982 in assay [9].
In the case of DKIAALEAKNAALEAEIAALKAKNAALEG [4H2447-AA], the interaction score is -1.82 in assay [10]; -1.56 in [11]; -1.7 in assay [12]; -1.83 in assay [13]; 1.72 in [14]; -1.28 in assay [15]. Also, the interaction score in assay [16] was -1.79; in assay [17] it was -0.716; in [18], -2.05; in assay [19], -1.42; in [20], -1.38; in assay [21] it was -1.75. Besides, the interaction score was -1.5 in assay [22]; -1.38 in assay [23]; -1.78 in [24]; -1.69 in [25]; -1.6 in [26]; -1.68 in assay [27]. The interaction score in assay [28] was -1.12; in assay [29], -1.36; in [30], -0.798; in assay [31] it was -1.8.
